This is an account of results in US20230348568A1 (US Dept. of Health and Human Services, published 2023).

Experiment [1] deals with EBV gH/gL/gp42 heterotrimer (recombinant protein) (Epstein-Barr virus) (UniProt P03231). In words: BLI cross-competition; gH/gL/gp42 on the biosensor pre-saturated with primary mAb 4C12, then binding of this secondary mAb measured; high value = secondary blocked.
For experiment [2] the target is unchanged. In words: BLI cross-competition; gH/gL/gp42 on the biosensor pre-saturated with primary mAb A10, then binding of this secondary mAb measured; high value = secondary blocked.
For experiment [3] the target is unchanged. The experiment is described as follows: BLI cross-competition; gH/gL/gp42 on the biosensor pre-saturated with primary mAb F2-1, then binding of this secondary mAb measured (self pair); high value = secondary blocked.
Experiment [4] concerns the target Epstein-Barr virus glycoprotein 42 (gp42) (Epstein-Barr virus) (UniProt P03205). In words: cell-based or functional assay.
In experiment [5] the target is T1, Epstein-Barr virus glycoprotein 42 (gp42) (Epstein-Barr virus, UniProt P03205 34-223, limits assumed).
T1 sequence: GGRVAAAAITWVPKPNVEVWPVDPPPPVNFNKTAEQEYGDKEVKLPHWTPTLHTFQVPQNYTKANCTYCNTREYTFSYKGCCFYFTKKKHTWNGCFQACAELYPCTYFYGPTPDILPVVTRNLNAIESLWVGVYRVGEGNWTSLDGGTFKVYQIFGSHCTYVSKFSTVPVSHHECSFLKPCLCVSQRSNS
The experiment is described as follows: cell-based or functional assay.

For experiment [6], the target named is T1, Epstein-Barr virus glycoprotein 42 …. The experiment is described as follows: cell-based or functional assay. The source holds these as a separate data set.
Experiment [7] shares this target. In words: cell-based or functional assay. This is another data set of the same source.
For experiment [8], the target named is T2, EBV gH/gL/gp42 heterotrimer (recombinant protein) (Epstein-Barr virus, UniProt P03231 19-679; P03212 23-137).
T2 construct: Recombinant complex; also called gH/gL/gh42
In words: BLI (Octet RED96e), biotinylated gH/gL/gp42 on streptavidin biosensors, Fab dilution series, 1:1 global fit. Background: In BLI a coated tip is dipped into the sample, and binding shifts an interference pattern.

Experiment [9] concerns the target T2, EBV gH/gL/gp42 heterotrimer …. In words: BLI, gH/gL/gp42 on the biosensor, dilution series of Fab (legend box shows 5.00E-07), 300 s association, dissociation to 1200 s.

Turning to “F2-1 monoclonal antibody (previously described murine anti-gp42 antibody)”, the cross-competition (name or unit not given) in experiment [1] stood at 8.9; in experiment [2] it was 100; in experiment [3], 95.4. In experiment [4], the IC50 titer to block glycoprotein-mediated B cell fusion stood at 111 µg/mL. Moreover, the IC50 titer to neutralize EBV infection in B cells in experiment [4] is 0.584 µg/mL.

B1: A10 monoclonal antibody (cynomolgus monkey variable regions on human IgG1 constant region) (antibody, V domains shown)
VH: QVQLQESGPGLVKPSQTLSLTCAISGDSVSSNSATWNWIRQSPSRGLEWLGRTYYRSKWYYDYAQSVQNRISINPDTSKNQFSLQLNSVTPEDMAVYYCARGDFDAFDFWGQGLRVTVSS
VL: SYELTQPPSVSAASGQTARITCGGDNIGSKNVQWYQQKPAQAPVLVIYADSKRPSGVPERFSGSNSGNTATLTISGVEAGDEADYYCQVWDRSSNIFGVGTRLTVLG
As to B1, the “IC50 titer to neutralize EBV infection in B cells” value in [5] amounted to 0.0391 µg/mL. Moreover, in experiment [6], the “effectiveness in blocking B cell fusion relative to F2-1” value is approximately 50 fold and the “neutralization potency relative to F2-1” value was approximately 14 fold. For the same molecule, the “IC50 titer to block glycoprotein-mediated B cell fusion” value in [7] is 2.41 µg/mL.

B2: A10 Fab (Fab, V domains shown)
VH: QVQLQESGPGLVKPSQTLSLTCAISGDSVSSNSATWNWIRQSPSRGLEWLGRTYYRSKWYYDYAQSVQNRISINPDTSKNQFSLQLNSVTPEDMAVYYCARGDFDAFDFWGQGLRVTVSS
VL: SYELTQPPSVSAASGQTARITCGGDNIGSKNVQWYQQKPAQAPVLVIYADSKRPSGVPERFSGSNSGNTATLTISGVEAGDEADYYCQVWDRSSNIFGVGTRLTVLG
notes: Fab of A10
The Kd is the equilibrium constant for the complex coming apart. As usually defined, the koff is the rate constant with which the complex falls apart. A word on the kon: it is the second-order rate constant of association. Take B2: in [8], the Kd stood at 0.149 nM, the koff was determined as 0.000227 s⁻¹ and the kon was 1.54e+06 M⁻¹ s⁻¹. In addition, the “IC50 titer to block glycoprotein-mediated B cell fusion” value in [7] turned out to be 1.73 µg/mL.

B3: 4C12 Fab (Fab, V domains shown)
VH: EVQLQQSGPELVKPGASVKISCKASGYTFTDYNMHWVKQSHGKNLEWIGFIYLYNGGTGYNQNFKSKATLTVDNSSSTAYMELRSLTSEDSAVFYCARDYYGNPYAMDYWGQGTSVTVSS
VL: DIQMTQTTSSLSASLGDRVTISCRASQDISNYLNWYQQKPDGTVKLLIYYTSRLRSGVPSRFSGSGSGTDYSLTINNLEQEDIATYFCQQGNTLPFTFGSGTKLEIK
notes: Fab of mAb 4C12; how the Fab was made is not described
As for B3, the Kd in experiment [9] was determined as 57.9 nM.
